Experimental findings from patent US20250171550A1 (NINGBO T MAXIMUM BIOPHARMACEUTICALS, published 2025) are described below.

Substitutions are numbered along the chain they refer to. Numbers in names are those of the source.

The target in test [1] is T1, Biotin-BCMA-Fc (human, UniProt Q02223 1-54, labelled with NHS-biotin, sites not stated).
T1 construct: also called Biotin-BCMA-Fc protein; labeled BCMA-Fc recombinant protein; not shown: Fc part
T1 sequence (looked up): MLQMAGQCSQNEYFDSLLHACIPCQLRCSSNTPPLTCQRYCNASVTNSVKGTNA
Put plainly: flow cytometry of the induced yeast single clone displaying the VHH, Biotin-BCMA-Fc and PE-streptavidin. The protocol:
After two rounds of magnetic sorting were repeated, a part of the yeast was cultured and subjected to induced expression and flow cytometry assays. Another part was directly applied onto a PAD plate, and single clones were then picked and cultured, and were incubated simultaneously with Biotin-Fc and Biotin-BCMA-Fc 24 h after induced expression, with PE-Streptavidin as a secondary antibody; after incubation, flow cytometry assays were performed, and the results are shown in FIG. 3, where 14 clones are shown to bind to Biotin-BCMA-Fc.
On the technique in general: Flow cytometry measures light scatter and fluorescence of single cells or particles in a stream.

The target of test [2] is T2, BCMA-Fc recombinant protein (human, UniProt Q02223 1-54).
T2 construct: also called human BCMA protein; BCMA protein; not shown: Fc part
T2 sequence (looked up): T1 sequence (looked up)
As to the kind of experiment: SPR, Biacore 8K, CM5 chip; antibody captured by anti-human IgG (Fc), human BCMA protein as analyte (paragraph 147 describes the reverse format). The protocol:
The mouse anti-human IgG (Fc) antibody was diluted with the immobilization reagent (sodium acetate, pH 5.0): 950 μL of the immobilization reagent was added to 50 μL of the mouse anti-human IgG (Fc) antibody. The dilution was used for immobilization in eight channels. First, the surface of the CM5 chip was activated for 360 s with EDC and NHS at a flow rate of 10 μL/min. Then, the mouse anti-human IgG (Fc) antibody was injected into the channels (channels 1-8, Fc1,2) at a flow rate of 10 μL/min for about 360 s, with the level of immobilization at about 7000 to 14,000 RU. Finally, the chip was blocked with ethanolamine at 10 μL/min for 420 s.
Human BCMA protein was diluted 2-fold with the running reagent. The diluted human BCMA protein was injected into the experimental channels and the reference channels in sequence at a flow rate of 30 μL/min, and corresponding periods of association and dissociation were allowed. The association and dissociation steps were all performed in the running reagent. After each concentration analysis, the chip needed to be regenerated with magnesium chloride at a flow rate of 20 μL/min for 30 s to wash away the ligand and undissociated analyte. For the next concentration analysis, the experimental channels needed to recapture the same amount of ligand.
A KD value was calculated for each sample using Biacore 8K analysis software Biacore Insight Evaluation Software. The reference channels (Fc1) were used for background subtraction.
(In general: SPR reads the build-up and loss of mass on a sensor chip optically.)

B1: C6 (Fc fusion)
VHH-Fc fusion chain: QVQLVESGGGLVETGSSLRLSCKSSGHSFSDYSLAWFRQAPGKEREFVAAITWSDVPRDDAVTYYRVDVKGRFTISRDNAKNTVYLQMNSLKPEDTAVYYCAVDASLVMTLTPRYWGQGTQVTVSS
notes: also called single-domain antibody C6
Regarding B1, in test [1], the “percent of cells in gate R3” value came out at 93.3%.

B2: humanized single-domain antibody hu4811 (Fc fusion)
chain: QVQLVESGGGLVQPGGSLRLSCAASGHTPSNYAMGWFRQTPGKEREFVAAITWSAVTRDDAIPYYADSVKGRFTISRDNSKNTLYLQMNSLRAEDTAVYYCAVDASLVMTPTPRYWGQGTLVTVSS
notes: Humanized on DP-47 frameworks, original FR2 kept; Fusion partner inferred; not shown: fusion partner
Consider B2, for which, in test [2], the dissociation constant Kd was found to be 9.71 nM, the koff was found to be 0.0698 s⁻¹ and the on-rate constant (kon) worked out at 7.19e+06 M⁻¹ s⁻¹.

B3: single-domain antibody 48-11 (Fc fusion)
chain: B2 chain with P14A, A66R, D67T, S80A, L84V, R92K, A93P, L121Q
notes: Supernatant was used in flow cytometry, Protein A purified material in Biacore; not shown: human IgG1 Fc, ligated in series to the VHH (vector Lenti-hIgG1-Fc2)
Turning to B3, in test [1], the “percent of cells in gate R3” value is 98.4%. For the same molecule, in test [2], the Kd is 0.0379 nM, the dissociation rate constant (koff) was 0.0013 s⁻¹ and the kon turned out to be 3.42e+07 M⁻¹ s⁻¹.

B4: humanized single-domain antibody hu4811FGLF (Fc fusion)
chain: B2 chain with T40A, E44G, R45L
notes: FR1, FR3 and FR4 replaced and T45A, E49G, R50L in FR2; Fusion partner inferred; not shown: fusion partner
Consider B4, for which, in test [2], the dissociation constant (Kd) amounted to 10.2 nM, the koff was found to be 0.126 s⁻¹ and the on-rate constant (kon) was 1.24e+07 M⁻¹ s⁻¹.

B5: C2 (Fc fusion)
VHH-Fc fusion chain: QVQLVESGGGLVQAGGSLRLSCVASGLTFSNYAMGWFRQGPGKDRDFVAAITRSDERQNDGVTYYRVSVKGRFTISRDNANDTVYLQMNSLKPEDTAIYYCAADPSLVFSPTLRYWGQGTLVTVSS
notes: also called single-domain antibody C2
Regarding B5, the “percent of cells in gate R3” value in test [1] was 95.3%.

B6: D10 (Fc fusion)
VHH-Fc fusion chain: B5 VHH-Fc fusion chain with A14P, V23A, L27F, T28S, F29L, S30N, A33V, M34I, G40A, L113P
notes: also called single-domain antibody D10
As for B6, in test [1], the “percent of cells in gate R3” value worked out at 99.8%.

B7: humanized single-domain antibody huD1 (Fc fusion)
chain: QVQLVESGGGLVQPGGSLRLSCAASGRTSTTSVMGWFRQAPGKERRFVAAITRTDDRQNDGITYYADSVKGRFTISRDNSKNTLYLQMNSLRAEDTAVYYCAAHTSLVFTPDPRYWGQGTLVTVSS
notes: Humanized on DP-47 frameworks, original FR2 kept; not shown: fusion partner
As to B7, in test [2], the dissociation constant (Kd) was 1.9 nM, the off-rate (koff) was determined as 0.0141 s⁻¹ and the kon amounted to 7.41e+06 M⁻¹ s⁻¹.

B8: humanized single-domain antibody huD1FGLF (Fc fusion)
chain: B7 chain with E44G, R45L, R46E
notes: FR1, FR3 and FR4 replaced and FR2 mutated; Fusion partner inferred; also called huDIFGLF; not shown: fusion partner
Consider B8, for which, in test [2], the dissociation constant Kd amounted to 9.25 nM, the koff was 0.0579 s⁻¹ and the kon amounted to 6.26e+06 M⁻¹ s⁻¹.

B9: single-domain antibody D1 (Fc fusion)
chain: B7 chain with P14A, A23V, A66G, D67E, S80D, L84V, R92K, A93P, L121P, S125P
notes: not shown: human IgG1 Fc, ligated in series to the VHH (vector Lenti-hIgG1-Fc2)
For B9, the binding result in test [1] is “binds”. In addition, in test [2], the Kd was 0.243 nM, the dissociation rate constant (koff) is 0.00212 s⁻¹ and the kon was determined as 8.73e+06 M⁻¹ s⁻¹.

Usually Kd stands for the constant that tells how readily two partners part at equilibrium. In general, koff refers to the first-order rate constant of dissociation. The kon is the rate constant with which the complex forms.
